This series concerns the molecule itself. Kind of series: time-resolved fluorescence anisotropy. A general note: In fluorescence polarisation assays a small probe gives low polarisation when free and higher when bound to something large.

B1: Dengue virus serotype 2 capsid protein (natural protein)
chain: MNNQRKKARNTPFNMLKRERNRVSTVQQLTKRFSLGMLQGRGPLKLFMALVAFLRFLTIPPTAGILKRWGTIKKSKAINVLRGFRKEIGRMLNILNRRRR
notes: also called DENV C; C protein
Turning to B1, the binding result was “binds”.

(Values after article PMC6720645, “Structural and Functional Properties of the Capsid Protein of Dengue and Related Flavivirus” (International Journal of Molecular Sciences, 2019).)
